Measured values taken from paper PMC6168280 (The Journal of Cell Biology, 2018).

Assays:
[1] = biological target: C. thermophilum Vps1 GG (minimal GTPase-BSE fusion) (C. thermophilum); assay: SEC-MALS
SEC-MALS = biological target: the molecule itself; assay: SEC-MALS

| Molecule | stoichiometry N [1] | stoichiometry N (SEC-MALS) |
| --- | --- | --- |
| C. thermophilum Vps1 GG (minimal GTPase-BSE fusion) (domain or fragment) | 2 | – |
| S. cerevisiae Vps1 G436D (natural protein) MDEHLISTINKLQDALAPLGGGSQSPIDLPQITVVGSQSSGKSSVLENIVGRDFLPRGTGIVTRRPLVLQLINRRPKKSEHAKVNQTANELIDLNINDDDKKKDESGKHQNEGQSEDNKEEWGEFLHLPGKKFYNFDEIRKEIVKETDKVTGANSGISSVPINLRIYSPHVLTLTLVDLPGLTKVPVGDQPPDIERQIKDMLLKYISKPNAIILSVNAANTDLANSDGLKLAREVDPEGTRTIGVLTKVDLMDQGTDVIDILAGRVIPLRYGYIPVINRGQKDIEHKKTIREALENERKFFENHPSYSSKAHYCGTPYLAKKLNSILLHHIRQTLPEIKAKIEATLKKYQNELINLGPETMDSASSVVLSMITDFSNEYAGILDGEAKELSSQELSGGARISYVFHETFKNGVDSLDPFDQIKDSDIRTIMYNSSDSAPSLFVGTEAFEVLVKQQIRRFEEPSLRLVTLVFDELVRMLKQIISQPKYSRYPALREAISNQFIQFLKDATIPTNEFVVDIIKAEQTYINTAHPDLLKGSQAMVMVEEKLHPRQVAVDPKTGKPLPTQPSSSKAPVMEEKSGFFGGFFSTKNKKKLAALESPPPVLKATGQMTERETMETEVIKLLISSYFSIVKRTIADIIPKALMLKLIVKSKTDIQKVLLEKLYGKQDIEELTKENDITIQRRKECKKMVEILRNASQIVSSV | – | 2 |
